Results reported in patent US8541236B2, “Mutant apolipoprotein A-1 polypeptide with increased resistance to oxidation and reactive carbonyls” (University of Washington, priority 2006, dated 2013).
Entries after “also recorded” stand apart in the source; their conditions may differ.

Columns and labels:
[1] = Thioflavin T binding assay and electron microscopy for amyloid formation; format: physicochemical
Procedure: A thioflavin T binding assay was used to investigate whether chlorination of apoA-I promotes amyloid formation. Thioflavin T is known to bind rapidly to amyloid fibrils and undergoes a dramatic increase in fluorescence at 485 nm upon excitation at 455 nm (see Naiki, H., et al., Anal. Biochem. 177:244-249, 1989). apoA-I was chlorinated by treatment with HOCl or the MPO system and a time course of thioflavin T binding to treated apoA-I was carried out over 60 minutes as shown in FIG. 6B.

[2] = Denaturing SDS-PAGE analysis of oxidant-treated apoA-I; format: physicochemical
Procedure: In order to analyze the effects of HOCl and acrolein on apoA-I structure, purified apoA-I was treated with a molar ratio of HOCl at mol:mol concentrations of 0, 5, 10, or 25; or with a molar ratio of acrolein at mol:mol concentrations of 0, 1, 2, 5, 10, or 20.

[3] = target: T1, Lecithin Cholesterol Acyltransferase (LCAT) (Homo sapiens, UniProt P04180); experiment: Activation of LCAT after oxidation with MPO; format: biochemical; settings: apoA-I exposed to MPO
T1 sequence (P04180 25-440): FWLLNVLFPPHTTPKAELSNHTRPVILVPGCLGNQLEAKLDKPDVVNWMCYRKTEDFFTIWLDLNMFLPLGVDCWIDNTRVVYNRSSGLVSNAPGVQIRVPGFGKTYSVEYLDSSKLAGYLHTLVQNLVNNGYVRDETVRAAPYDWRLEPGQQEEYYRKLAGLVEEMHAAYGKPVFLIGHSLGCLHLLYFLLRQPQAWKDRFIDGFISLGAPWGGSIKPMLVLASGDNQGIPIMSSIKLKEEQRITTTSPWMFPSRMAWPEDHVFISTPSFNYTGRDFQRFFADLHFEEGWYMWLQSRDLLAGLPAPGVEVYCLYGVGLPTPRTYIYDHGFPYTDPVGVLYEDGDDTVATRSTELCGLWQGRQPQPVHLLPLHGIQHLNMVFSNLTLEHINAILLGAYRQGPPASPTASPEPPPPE
Procedure: Reactions with isolated HDL (1 mg protein/ml) were carried out at 37° C. for 1 h in 50 mM sodium phosphate buffer (pH 7.4) containing 100 uM DTPA and 100 nM MPO. Reactions were initiated by adding hydrogen peroxide and terminated by adding a 20-fold molar excess (relative to peroxide) of Met.

ABCA1 [4] = target: T2, ABCA1 (Homo sapiens, UniProt O95477); experiment: Radiolabeled cholesterol efflux assay from ABCA1-transfected BHK cells; format: cell-based; design: expressed in transfected cells; host or cells: BHK (baby hamster kidney) cells, mifepristone-inducible GeneSwitch system; settings: apoA-I treated with increasing concentrations of MDA
ABCA1 [5] = target: T2, ABCA1; experiment: as above; format: cell-based; design: expressed in transfected cells; host or cells: BHK (baby hamster kidney) cells, mifepristone-inducible GeneSwitch system; settings: for cholesterol efflux promoted: after oxidation by the MPO system
Procedure: The effect of oxidant treatment of apoA-I on the ability of apoA-I to promote cholesterol efflux from cells via the ABCA1 pathway was measured as follows.
A radiolabeled cholesterol efflux assay from ABCA1-transfected cells was carried out as described in Shao, et al., J. Biol. Chem. 280(7):5983-5993, 2005. Briefly described, baby hamster kidney (BHK) cells expressing mifepristone-inducible human ABCA1 were generated as described in Vaughan, A. M., et al., J. Lipid. Res. 44:1373-1380, 2003. Cellular cholesterol was labeled by adding 1 μCi/ml [^3H]cholesterol (Perkin Elmer Life Sciences) to the growth medium. Twenty-four hours later, strong expression of ABCA1 was induced by incubating the cells for 20 h with Dulbecco's modified Eagle's medium containing 1 mg/ml bovine serum albumin and 1 nM mifepristone. To measure cholesterol efflux, mock or ABCA1-transfected cells were incubated with Dulbecco's modified Eagle's medium/bovine serum albumin with or without apoA-I treated under the following conditions:
(1) purified apoA-I was treated for 1 hour with increasing concentrations of HOCl, H2O2 with MPO plus NACl, ONOO, or H2O2 with MPO plus NO2;
(2) purified apoA-I was treated for 24 hours with a molar ratio (mol:mol) of 0, 1:25, or 1:50 of acrolein; and
(3) peptide 2F was treated for 1 hour with a 25 molar excess of HOCl.
After 2 hour incubations with apoA-I, the medium and cells were assayed for [^3H]cholesterol as described in Vaughan, A. M., et al., J. Lipid. Res. 44:1373-1380, 2003. Cholesterol efflux mediated by apoA-I was calculated as the percentage of total [^3H]cholesterol (medium plus cells) released into the medium after subtracting the value obtained with Dulbecco's modified Eagle's medium/bovine serum albumin alone. Acrolein adducts of K226 were measured by MS.
BHK cells transfected with a mifepristone-inducible GeneSwitch (Invitrogen) system containing a human ABCA1 cDNA were incubated with serum-free medium with or without 10 nM mifipristone for 24 h to generate cells expressing virtually no or high levels of ABCA1, respectively (see Vaughan, A. M., and J. F. Oram, J. Lipid Res. 44:1373-1380, 2003). To radiolabel cellular cholesterol, [^3H]cholesterol was added to the acetyl LDL medium for macrophages and the growth medium prior to ABCA1 induction for BHK cells. Efflux of [^3H]cholesterol was measured after a 2 h incubation in medium with or without apoA-I (Tang, C., et al., J. Biol. Chem. 279:7622-7628, 2004).

[6] = Far UV circular dichroism of HOCl-treated apoA-I; format: physicochemical; settings: treated 1 hour with HOCl
Procedure: Secondary structure of apoA-I was determined using far UV circular dichroism.

[7] = system: Baby Hamster Kidney (BHK) cells transfected with a transfection vector alone (Mock); experiment: 3H-cholesterol efflux from Mock-transfected BHK cells (ABCA1-independent, Example 11); format: cell-based; settings: 20 μg/ml peptide, HOCl-treated (5 molar ratio HOCl to peptide), 4 hours
Procedure: (§1) Baby Hamster Kidney (BHK) cells were transfected with a cDNA expressing ABCA1 (ABCA1) or with a transfection vector alone (Mock). The transfected cells were radiolabeled with ^3H-cholesterol, washed and then incubated for 4 hours with media containing 20 μg/ml untreated or HOCl-treated (5 molar ratio HOCl to peptide) peptide 2F (SEQ ID NO:9). At the end of the incubation, the amount of ^3H-cholesterol (efflux) released from the cells was measured and expressed as the percent total (media plus cells) ^3H-cholesterol.

ABCA1 [8] = target: T2, ABCA1; design: expressed in transfected cells; host or cells: BHK (baby hamster kidney) cells; settings: cited from earlier work
ABCA1 [9] = target: T2, ABCA1; experiment: 3H-cholesterol efflux from ABCA1-transfected BHK cells, 4 hour incubation with peptide (Example 11); format: cell-based; design: expressed in transfected cells; host or cells: BHK (baby hamster kidney) cells; settings: 20 μg/ml peptide, HOCl-treated (5 molar ratio HOCl to peptide)
Procedure: as §1

[10] = ESI-MS analysis of chlorination after incubation with HOCl; format: physicochemical; settings: incubated in the presence of HOCl

T2 sequence (O95477 whole entry): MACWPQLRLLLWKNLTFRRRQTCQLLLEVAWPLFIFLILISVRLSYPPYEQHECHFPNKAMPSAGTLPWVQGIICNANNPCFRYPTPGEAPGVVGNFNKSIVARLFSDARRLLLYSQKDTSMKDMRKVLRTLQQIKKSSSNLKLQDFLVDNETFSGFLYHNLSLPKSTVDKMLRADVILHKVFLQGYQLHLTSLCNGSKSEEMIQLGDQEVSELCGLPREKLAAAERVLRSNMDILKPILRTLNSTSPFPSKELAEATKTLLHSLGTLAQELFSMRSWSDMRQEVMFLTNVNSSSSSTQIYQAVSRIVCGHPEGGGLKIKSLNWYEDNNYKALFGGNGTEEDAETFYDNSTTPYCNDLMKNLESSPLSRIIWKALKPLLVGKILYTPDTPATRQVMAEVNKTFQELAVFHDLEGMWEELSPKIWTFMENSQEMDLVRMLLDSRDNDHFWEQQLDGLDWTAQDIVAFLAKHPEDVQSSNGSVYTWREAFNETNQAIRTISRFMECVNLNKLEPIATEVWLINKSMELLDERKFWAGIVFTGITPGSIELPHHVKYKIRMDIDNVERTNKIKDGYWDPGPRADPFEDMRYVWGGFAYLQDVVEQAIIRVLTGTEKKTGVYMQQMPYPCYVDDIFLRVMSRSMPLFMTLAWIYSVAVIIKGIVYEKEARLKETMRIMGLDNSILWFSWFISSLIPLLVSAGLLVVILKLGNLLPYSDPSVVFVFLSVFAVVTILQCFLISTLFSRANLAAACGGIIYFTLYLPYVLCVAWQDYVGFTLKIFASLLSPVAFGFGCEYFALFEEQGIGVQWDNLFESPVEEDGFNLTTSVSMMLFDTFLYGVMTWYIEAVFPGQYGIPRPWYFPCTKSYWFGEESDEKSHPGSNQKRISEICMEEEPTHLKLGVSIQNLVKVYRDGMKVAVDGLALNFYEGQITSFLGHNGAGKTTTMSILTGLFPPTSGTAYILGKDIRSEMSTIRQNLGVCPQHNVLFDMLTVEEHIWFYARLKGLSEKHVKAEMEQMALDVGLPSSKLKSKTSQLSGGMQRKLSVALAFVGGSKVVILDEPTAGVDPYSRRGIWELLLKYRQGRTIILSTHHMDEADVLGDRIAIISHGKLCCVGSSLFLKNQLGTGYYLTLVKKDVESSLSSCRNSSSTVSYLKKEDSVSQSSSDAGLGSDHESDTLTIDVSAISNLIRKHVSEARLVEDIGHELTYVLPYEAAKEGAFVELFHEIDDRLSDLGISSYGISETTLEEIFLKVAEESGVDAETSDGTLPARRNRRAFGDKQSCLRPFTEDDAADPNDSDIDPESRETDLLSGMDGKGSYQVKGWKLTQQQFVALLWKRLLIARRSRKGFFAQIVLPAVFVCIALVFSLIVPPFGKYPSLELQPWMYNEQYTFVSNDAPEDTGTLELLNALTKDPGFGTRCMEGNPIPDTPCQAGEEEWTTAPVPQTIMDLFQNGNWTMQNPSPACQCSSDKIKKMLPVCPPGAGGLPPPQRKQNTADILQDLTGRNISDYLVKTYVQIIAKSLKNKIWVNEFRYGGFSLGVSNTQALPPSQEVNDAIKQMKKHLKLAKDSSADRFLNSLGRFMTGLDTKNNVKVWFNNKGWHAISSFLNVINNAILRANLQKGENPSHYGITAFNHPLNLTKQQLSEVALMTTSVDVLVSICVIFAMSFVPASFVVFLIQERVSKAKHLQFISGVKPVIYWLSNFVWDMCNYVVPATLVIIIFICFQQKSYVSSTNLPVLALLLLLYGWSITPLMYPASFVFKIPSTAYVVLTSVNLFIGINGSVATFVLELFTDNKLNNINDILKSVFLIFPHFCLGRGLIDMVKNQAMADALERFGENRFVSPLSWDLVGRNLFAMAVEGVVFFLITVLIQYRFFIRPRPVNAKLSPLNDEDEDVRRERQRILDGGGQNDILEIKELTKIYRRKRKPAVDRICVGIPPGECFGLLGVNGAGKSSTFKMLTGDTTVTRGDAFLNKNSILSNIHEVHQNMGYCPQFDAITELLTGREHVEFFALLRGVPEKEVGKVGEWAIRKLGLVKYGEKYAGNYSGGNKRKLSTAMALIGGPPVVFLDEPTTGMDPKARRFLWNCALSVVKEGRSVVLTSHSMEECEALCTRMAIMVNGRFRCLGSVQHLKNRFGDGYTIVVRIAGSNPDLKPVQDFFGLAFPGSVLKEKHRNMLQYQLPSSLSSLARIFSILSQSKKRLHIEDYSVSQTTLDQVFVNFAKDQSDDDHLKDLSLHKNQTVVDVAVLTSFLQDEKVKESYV

apoA-I: mature form of wild type human apoA-I, 243 amino acid polypeptide, purified from HDL
thioflavin T binding ([1]; chlorination by HOCl or the complete MPO system, versus untreated apoA-I): markedly increased | amyloid-like structures ([1]; nitrated apoA-I): failed to reveal amyloid-like structures | amyloid-like structures ([1]; untreated apoA-I): no detectable amyloid-like structures | higher molecular weight species on SDS-PAGE ([2]; increasing concentrations of HOCl): generated higher molecular weight species that were resistant to SDS | higher molecular weight species on SDS-PAGE ([2]; increasing concentrations of acrolein): generated higher molecular weight species that were resistant to SDS | higher molecular weight species on SDS-PAGE ([2]; nitrated by reagent ONOO- or the complete MPO/H2O2/NO2 system): not observed | ability to activate LCAT [3]: looses its ability to activate LCAT; also recorded: loss of its ability | cholesterol efflux activity (ABCA1 [4]): progressively and extensively impaired | correlation (R) of impaired cholesterol removal with adduction of K226 (ABCA1 [5]; acrolein-treated apoA-I): 0.988 | cholesterol efflux activity (ABCA1 [5]; after nitration of apoA-I (H2O2 with MPO plus NO2)): fails to affect; also recorded: only a small inhibitory effect | cholesterol efflux promoted (ABCA1 [5]): significantly decreased | cholesterol efflux activity (ABCA1 [5]; apoA-I treated 1 hour with increasing concentrations of HOCl or of H2O2 with the complete chlorinating MPO system): progressively and extensively impaired | ability to remove cellular cholesterol by the ABCA1 pathway (ABCA1 [5]; apoA-I treated 24 hours with increasing concentrations of acrolein): progressively impaired | cholesterol efflux activity (ABCA1 [5]; apoA-I treated with ONOO-): no effect | ability to promote cholesterol efflux (ABCA1 [5]; complete MPO system with increasing H2O2 or increasing HOCl, then PilB to reduce Met(O) back to Met): partially restored | mean residue molar ellipticity at 222 nm [6]: concentration-dependent increase

Ac-DWLKAFYDKVAEKLKEAF-NH2 [2F, 2F apoA-I mimetic peptide, unmodified]
ability to remove cholesterol by ABCA1-independent mechanism [7]: significantly reduced | ABCA1 dependent cholesterol efflux activity (ABCA1 [5]; peptide treated 1 hour with a 25 molar excess of HOCl, versus untreated peptide): significantly reduced | removing cell lipids by the ABCA1 pathway (ABCA1 [8]): mimic apoA-I | ability to remove cholesterol by ABCA1-dependent mechanism (ABCA1 [9]): significantly reduced

Tyr192Phe apoA-I: Tyr192Phe mutant of human apoA-I made by PCR mutagenesis, bacterially expressed
cholesterol efflux promoted (ABCA1 [5]): significantly decreased | protective effect against apoA-I inactivation (ABCA1 [5]; by either HOCL or the MPO system): only a small protective effect | ability to promote cholesterol efflux (ABCA1 [5]; increasing H2O2 in the complete MPO system, then incubated with PilB): nearly the same as that of native apoA-I | rates of cholesterol efflux compared with native apoA-I (ABCA1 [5]; no oxidant, increasing protein concentrations): virtually identical | resistance to oxidative inactivation by MPO (ABCA1 [5]; when the concentration of H2O2 was high): somewhat resistant | chlorination of residue 192 by HOCl [10]: fails to chlorinate

Ac-DWFKAFYDKVAEKFKEAF-NH2 [4F, 4F apoA-I mimetic peptide, unmodified original]
removing cell lipids by the ABCA1 pathway (ABCA1 [8]): mimic apoA-I
